In paper PMC8639797 one finds fold reduction of affinity against wild type data, which are given here for one molecule.

The target in this assay is ALK ECR^ABR variants with single substitutions in the TNF-like or EGF-like domains (BLI, Fig. 2d). The assay can be described thus: BLI. (In BLI a coated tip is dipped into the sample, and binding shifts an interference pattern.)

B1: ALKAL2-AD (residues 77–152) (domain or fragment)
chain: GPSPEQRVEIVPRDLRMKDKFLKHLTGPLYFSPKCSKHFHRLYHNTRDCTIPAYYKRCARLLTRLAVSPVCMEDKQ
In turn, B1 had a fold reduction of affinity against wild type of 2 to 3 fold.
